The values below are quoted from earlier work in publication PMC9852560.

The term Kd denotes a measure of binding affinity in units of concentration.

This data set concerns the target laminin gamma1 (UniProt P02468). The data set is described as follows: SEC. For orientation: SEC sorts molecules by how far they enter the pores of the column.
UniProt P02468, sequence (P02468 34-1607): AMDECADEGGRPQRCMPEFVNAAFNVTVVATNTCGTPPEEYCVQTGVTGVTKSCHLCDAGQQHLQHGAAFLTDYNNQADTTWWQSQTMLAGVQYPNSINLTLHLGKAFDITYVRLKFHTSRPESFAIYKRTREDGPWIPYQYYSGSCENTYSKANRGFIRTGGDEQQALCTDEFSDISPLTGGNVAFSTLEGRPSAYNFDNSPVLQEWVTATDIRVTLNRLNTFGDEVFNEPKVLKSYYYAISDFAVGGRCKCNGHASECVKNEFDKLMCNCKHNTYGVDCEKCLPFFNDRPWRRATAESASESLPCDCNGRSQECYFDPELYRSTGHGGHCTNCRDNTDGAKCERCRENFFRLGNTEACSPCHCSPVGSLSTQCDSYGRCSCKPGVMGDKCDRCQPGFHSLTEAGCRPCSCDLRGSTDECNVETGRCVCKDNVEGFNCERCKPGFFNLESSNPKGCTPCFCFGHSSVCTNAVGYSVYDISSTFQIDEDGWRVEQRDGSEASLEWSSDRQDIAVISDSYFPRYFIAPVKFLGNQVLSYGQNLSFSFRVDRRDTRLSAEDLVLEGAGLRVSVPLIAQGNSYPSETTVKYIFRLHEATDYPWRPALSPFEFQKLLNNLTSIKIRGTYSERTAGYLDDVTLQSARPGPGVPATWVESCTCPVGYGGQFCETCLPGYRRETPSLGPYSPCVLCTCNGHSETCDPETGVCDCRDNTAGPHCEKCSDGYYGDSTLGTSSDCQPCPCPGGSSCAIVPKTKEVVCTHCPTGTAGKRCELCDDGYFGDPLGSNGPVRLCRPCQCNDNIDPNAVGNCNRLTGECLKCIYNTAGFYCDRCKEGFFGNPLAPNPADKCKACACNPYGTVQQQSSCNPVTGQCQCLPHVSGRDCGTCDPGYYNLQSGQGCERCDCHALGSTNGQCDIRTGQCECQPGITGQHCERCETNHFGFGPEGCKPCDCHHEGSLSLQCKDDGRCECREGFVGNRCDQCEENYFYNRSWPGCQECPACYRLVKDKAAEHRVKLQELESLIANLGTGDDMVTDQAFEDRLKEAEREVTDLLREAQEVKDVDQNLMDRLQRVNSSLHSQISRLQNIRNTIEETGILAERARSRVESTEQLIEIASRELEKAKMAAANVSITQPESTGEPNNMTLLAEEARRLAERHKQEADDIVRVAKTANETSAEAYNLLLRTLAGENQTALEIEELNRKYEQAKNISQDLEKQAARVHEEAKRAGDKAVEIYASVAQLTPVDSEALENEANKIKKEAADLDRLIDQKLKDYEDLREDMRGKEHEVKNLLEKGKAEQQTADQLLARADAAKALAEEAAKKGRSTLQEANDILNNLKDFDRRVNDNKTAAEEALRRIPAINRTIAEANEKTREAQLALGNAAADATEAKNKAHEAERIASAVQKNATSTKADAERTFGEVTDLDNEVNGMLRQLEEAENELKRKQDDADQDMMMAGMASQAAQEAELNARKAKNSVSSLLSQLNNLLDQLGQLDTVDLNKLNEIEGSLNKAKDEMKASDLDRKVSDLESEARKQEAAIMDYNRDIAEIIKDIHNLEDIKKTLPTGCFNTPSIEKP

On to laminin beta1 (from UniProt P02469), for which the Kd was 21 µM.
